# Results: patent publication US20250381289A1, “EGFR AND C-MET BISPECIFIC BINDING AGENTS, CONJUGATES THEREOF AND METHODS OF USING THE SAME” (GENMAB A/S, priority 2024, published 2025)
# Tested on: EGFR and cMET co-expressed tumor cell lines (A431, A549, MDA-MB-468, MKN-45, NCI-H441, NCI-H1975)
# Assay: Binding activity of parent mAbs by flow cytometry
# Settings: flow cytometry on tumor cell lines, FIGS. 1A-1F, Table 4; compared with telisotuzumab (teliso)
# Experimental: EGFR and cMET co-expressed tumor cell lines including A431 (ATCC® CRL-1555), A549 (ATCC® CCL-185, Provided by Procell), MDA-MB-468 (ATCC® HTB-132, Provided by Procell), MKN-45 (CL-0292, Provided by Procell), NCI-H441 (ATCC® HTB-174, Provided by COBIOER), NCI-H1975 (ATCC® CRL-5908, Provided by Procell) were selected for evaluating antibody binding activity by flow cytometry.
# A431 was cultured with DMEM medium (Gibco, Cat #C11995500BT) containing 10% FBS. MDA-MB-468, MKN-45, NCI-H441 and NCI-H1975 were cultured with RPMI 1640 medium (Gibco, Cat #11875093) containing 10% FBS. A549 was cultured with F12K medium (Gibco, Cat #21127030) containing 10% FBS. Each antibody was incubated with different cell lines (1×10^5 cells/well) for 30 min in 0.2 mL FACS buffer (1×PBS with 0.1% BSA) at 4° C. After wash, cells were incubated with 100 μL PE-conjugated anti human Fc (Abcam, Ab98596, 1:500 dilution) for 30 min at 4° C. After wash with PBS, cells were resuspended in FACS buffer and analyzed by flow cytometer (Beckman, CytoFLEX).
row,Molecule,binding activity of parent cMET mAbs (summary)
1,"ABF-46: parent cMET mAb, mouse antibody; sequences in Table 1 (antibody, V domains shown) VH: EVKLVESGGGLVQPGGSLRLSCATSGFTFTDYYMSWVRQPPGKALEWLGFIRNKANGYTTEYSASVKGRFTISRDNSQSILYLQMDTLRAEDSATYYCARDNWFAYWGQGTLVTVSA VL: DILMTQSPSSLTVSAGEKVTMSCKSSQSLLASGNQNNYLAWHQQKPGRSPKMLIIWASTRVSGVPDRFIGSGSGTDFTLTINSVQAEDLAVYYCQQSYSAPLTFGAGTKLELK","Lower activity than teliso, mouse antibody, filed in 2010; inferior choice"
2,"Onartuzumab: parent cMET mAb; sequences in Table 1 (antibody, V domains shown) VH: EVQLVESGGGLVQPGGSLRLSCAASGYTFTSYWLHWVRQAPGKGLEWVGMIDPSNSDTRFNPNFKDRFTISADTSKNTAYLQMNSLRAEDTAVYYCATYRSYVTPLDYWGQGTLVTVSS VL: DIQMTQSPSSLSASVGDRVTITCKSSQSLLYTSSQKNYLAWYQQKPGKAPKLLIYWASTRESGVPSRFSGSGSGTDFTLTISSLQPEDFATYYCQQYYAYPWTFGQGTKVEIK","Stronger binding than teliso, tumor promoting activity due to bivalent binding"
3,"Nova-5091: parent cMET mAb; sequences in Table 1 (antibody, V domains shown) VH: QVQLVQSGAEVKKPGASVKVSCKASGYTFTGYYMNWVRQAPGQGLEWMGIINPWTGNTNYAQKFQGRVTMTRDTSISTAYMELSSLRSEDTAVYYCARDPGFFYYTPSDLWGQGTLVTVSS VL: DIELTQPPSVSVAPGQTARISCSGDSIGNKYVHWYQQKPGQAPVLVIYADSDRPSGIPERFSGSNSGNTATLTISGTQAEDEADYYCQSYAHYHDIWVFGGGTKLTVLG",No binding activity
4,"Nova-5097: parent cMET mAb; sequences in Table 1 (antibody, V domains shown) VH: QVQLVQSGAEVKKPGSSVKVSCKASGGTFSSYAISWVRQAPGQGLEWMGGIDPFGTANYAQKFQGRVTITADESTSTAYMELSSLRSEDTAVYYCARVYQDVWGQGTLVTVSS VL: DIVMTQSPDSLAVSLGERATINCRSSQSILYGINNNFLGWYQQKPGQPPKLLIYWASTRESGVPDRFSGSGSGTDFTLTISSLQAEDVAVYYCQQYAFGWTFGQGTKVEIK","Stronger binding than teliso, no clinical validation"
5,"Nova-5098: parent cMET mAb; sequences in Table 1 (antibody, V domains shown) VH: QVQLVQSGAEVKKPGSSVKVSCKASGGTFSSYAISWVRQAPGQGLEWMGGIDPFGTANYAQKFQGRVTITADESTSTAYMELSSLRSEDTAVYYCARVYQDVWGQGTLVTVSS VL: DIVMTQSPDSLAVSLGERATINCRSSQSILYGINNNFLGWYQQKPGQPPKLLIYWASTRESGVPDRFSGSGSGTDFTLTISSLQAEDVAVYYCLQYSDEPWTFGQGTKVEIK","Stronger binding than teliso, no clinical validation"
6,"Nova-5185: parent cMET mAb; sequences in Table 1 (antibody, V domains shown) VH: QVQLVQSGAEVKKPGSSVKVSCKASGGTFSSYAISWVRQAPGQGLEWMGGIDPIMGTEYAQKFQGRVTITADESTSTAYMELSSLRSEDTAVYYCARVYQDVWGQGTLVTVSS VL: DIVMTQSPDSLAVSLGERATINCRSSQSILYGINNNFLGWYQQKPGQPPKLLIYWASTRESGVPDRFSGSGSGTDFTLTISSLQAEDVAVYYCQQYAYEPNTFGQGTKVEIK","Stronger binding than teliso, seems to have off-target binding"
